Data set [1] deals with Protein L (Peptostreptococcus magnus). Description: BIAcore 3000, over Protein L (~500-700 RU). A general note: Surface plasmon resonance follows binding to a sensor surface in real time, without labels.
The target is the same in data set [2]. Description: BIAcore 3000, over Protein L; statistic over the plates analysed.
Data set [3] deals with T1, Human Serum Albumin (human, UniProt P02768 25-609).
T1 construct: also called HSA; antigen
Description: see Table 2.

Data set [4] concerns the molecule itself. Kind of data set: analytical ultracentrifugation (sedimentation equilibrium), self-association.
Description: In the present examples, three 6-channel equilibrium cells were loaded with 9 protein solutions made by diluting the stock sample 10-, 20-, 30-, 150-, 200-, 300-, 400-, 500, and 600-fold (a range from 540 to 90 μg/ml). Each sample channel was loaded with 120 μl of protein solution and the reference channels were loaded with 125 μl of Dulbecco's phosphate-buffered saline (DPBS) dilution buffer. These cells were then loaded into an AN90-TI rotor and placed into a Beckman Coulter ProteomeLab XL-1 analytical centrifuge equipped with both absorbance and Rayleigh interference (refractive index detection) optical systems. Absorbance scans for the three highest concentrations were recorded at 280 nm; for the lowest concentrations 230 nm was used. The temperature was set at 25° C.
Data set [5] has as its target T1, Human Serum Albumin. Description: SPR (Biacore 2000), purified dAb over HSA (559 RU) on CM5 chip.
Description: (§1) The data analysis followed routine and established algorithms using the instrument's software (Bia-evaluation 3.2 RC1).
The target of data set [6] is T1, Human Serum Albumin. Description: SPR (Biacore 2000), purified dAb over HSA (559 RU) on CM5 chip; Table 13 cell, backed by its kon and koff.
Description: as §1

T1 sequence (P02768 25-609 limits assumed): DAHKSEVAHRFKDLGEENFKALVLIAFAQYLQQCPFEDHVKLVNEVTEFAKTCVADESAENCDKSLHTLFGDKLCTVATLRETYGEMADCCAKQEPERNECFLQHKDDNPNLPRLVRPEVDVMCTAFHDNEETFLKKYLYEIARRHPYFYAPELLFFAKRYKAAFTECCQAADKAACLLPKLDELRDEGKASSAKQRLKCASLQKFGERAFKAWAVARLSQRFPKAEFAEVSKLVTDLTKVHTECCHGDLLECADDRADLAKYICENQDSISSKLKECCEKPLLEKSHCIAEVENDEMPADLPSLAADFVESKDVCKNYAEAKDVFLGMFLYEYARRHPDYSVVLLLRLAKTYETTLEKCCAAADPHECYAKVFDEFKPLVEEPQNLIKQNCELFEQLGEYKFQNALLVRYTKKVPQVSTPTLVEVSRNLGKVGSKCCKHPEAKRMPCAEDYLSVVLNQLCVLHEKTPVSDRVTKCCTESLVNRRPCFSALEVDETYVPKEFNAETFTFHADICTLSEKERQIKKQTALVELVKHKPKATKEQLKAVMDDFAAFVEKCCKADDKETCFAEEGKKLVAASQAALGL

B1: DOM4-130-54 (protein)
VL: DIQMTQSPSSLSASVGDRVTITCRASQDIYLNLDWYQQKPGKAPKLLINFGSELQSGVPSRFSGSGYGTDFTLTISSLQPEDFATYYCQPSFYFPYTFGQGTKVEIKRA
In data set [1], B1 returned a % B5 (proportion of dAb bound at 5 min of dissociation) of 4%. In data set [2], the % B5, 25% Percentile amounted to 3.9%; the % B5, 75% Percentile turned out to be 4%; the % B5, Maximum was determined as 4%; the % B5, Mean is 3.9%. Moreover, in data set [2], the % B5, Median turned out to be 4% and the % B5, Minimum is 3.6%.

B2: DOM7h-8 (other)
VL: DIQMTQSPSSLSASVGDRVTITCRASQSISSYLNWYQQKPGKAPKLLIYRNSPLQSGVPSRFSGSGSGTDFTLTISSLQPEDFATYYCQQTYRVPPTFGQGTKVEIKR
notes: also called DOM7h-8 parent molecule; SD ctrl
As usually defined, the Kd is a measure of binding affinity in units of concentration. Low readings indicate a tighter complex, high ones a looser complex. As for B2, in data set [3], the binding result is “binds”. Binding in data set [4] was characterised by a dissociation constant (Kd) of 120 nM.

B3: DOM7h-11-15 (other)
VL: DIQMTQSPSSLSASVGDRVTITCRASRPIGTMLSWYQQKPGKAPKLLILAFSRLQSGVPSRFSGSGSGTDFTLTISSLQPEDFATYYCAQAGTHPTTFGQGTKVEIKR
notes: also called DOM7h-11-15 parent
The koff is the first-order rate constant of dissociation. Lower therefore signals a long-lived complex. What is called kon is the second-order rate constant of association. As to B3, in data set [5], the koff is 0.0045 s⁻¹ and the kon is 12000 M⁻¹ s⁻¹. For the same molecule, the Kd in data set [6] stood at 384 nM.
